Source: PMC1331984
Like-named read-outs stand apart in the source and are kept apart here.

How the values were obtained:
[1] = target: T1, TraI36 (F TraI relaxase domain) (Escherichia coli F plasmid (F factor), UniProt P14565 1-330); test: fluorescence anisotropy and intensity
T1 sequence: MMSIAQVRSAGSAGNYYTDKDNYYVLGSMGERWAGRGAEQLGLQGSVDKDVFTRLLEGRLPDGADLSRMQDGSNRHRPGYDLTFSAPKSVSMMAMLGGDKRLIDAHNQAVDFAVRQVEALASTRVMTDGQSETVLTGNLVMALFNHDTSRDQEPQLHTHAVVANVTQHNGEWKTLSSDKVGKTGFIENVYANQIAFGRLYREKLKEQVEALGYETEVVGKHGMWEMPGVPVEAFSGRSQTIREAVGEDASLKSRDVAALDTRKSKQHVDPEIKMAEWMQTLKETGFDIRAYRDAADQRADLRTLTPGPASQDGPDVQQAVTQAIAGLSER

[2] = target: T1, TraI36 (F TraI relaxase domain); test: fluorescence anisotropy and intensity; remark: listed apart in the source
[3] = target: T1, TraI36 (F TraI relaxase domain); test: fluorescence dissociation kinetics
[4] = target: T1, TraI36 (F TraI relaxase domain); test: competition

GCAAAAACTTGTTTTTGCGTGGGGTGTGGT (structured_DNA) [WT Hairpin]
Kd [1]: 6.8 ± 1.2 nM

CGTTTTTGTTGTTTTTGCGTGGGGTGTGGT (ssDNA) [No Hairpin]
Kd [2]: 16 ± 1 nM

GCAAAAACTTGTTTTTCGGTGGGGTGTGGT (structured_DNA) [G151'C/C150'G Hairpin]
binding result [3]: binds

CGAAAAACTTGTTTTTCGGTGGGGTGTGGT (structured_DNA) [G167'C/C166'G/G151'C/C150'G Hairpin]
Kd [2]: 78 ± 2 nM

CGAAAAACTTGTTTTTGCGTGGGGTGTGGT (structured_DNA) [G167'C/C166'G Hairpin]
Kd [1]: 12 ± 1.8 nM

TTTGCGTGGGGTGTGGT (ssDNA) [WT 17mer]
Kd [2]: 39 ± 0.8 nM

TTTCGGTGGGGTGTGGT (ssDNA) [G151'C/C150'G 17mer]
Kd [2]: 390 ± 9 nM

TTTGCGTGGGCTGTGGT (ssDNA) [G144'C 17mer]
binding result [4]: no binding
